Where two headings read alike, the source gives them in different places.
Columns and labels:
[1] = target: T1, recombinant biotinylated CD71 extracellular domain (Sino Biologics) with an N-terminal 6His tag (human, UniProt P02786 89-760, biotinylated (sites not given)); assay: screening ELISA
T1 construct: extracellular domain; also called hCD71; huCD71

[2] = target: T1, recombinant biotinylated CD71 …; assay: screening ELISA, ratio
CD71 on SK-BR-3 cells [3] = target: T2, CD71 on SK-BR-3 cells (human, UniProt P02786 1-760); assay: cell-based or functional assay
CD71 on SK-BR-3 cells [4] = target: T2, CD71 on SK-BR-3 cells; assay: cell-based or functional assay; remark: listed apart in the source
[5] = target: T1, recombinant biotinylated CD71 …; assay: screening ELISA; remark: listed apart in the source
Protocol: (§1) To screen for FN3 domains that specifically bind CD71, streptavidin-coated Maxisorp plates (Nunc catalog 436110) were blocked for 1 hour in Starting Block T20 (Pierce) and then coated with biotinylated CD71 (using same antigen as in panning) or negative controls (an unrelated Fc-fused recombinant protein and human serum albumin) for 1 hour. Plates were rinsed with TBST and diluted lysate was applied to plates for 1 hour. Following additional rinses, wells were treated with HRP-conjugated anti-V5 tag antibody (Abcam, ab1325), for 1 hour and then assayed with POD (Roche, 11582950001).

[6] = target: T1, recombinant biotinylated CD71 …; assay: screening ELISA, ratio; remark: listed apart in the source
Protocol: as §1

CD71 on SK-BR-3 cells [7] = target: T2, CD71 on SK-BR-3 cells; assay: cell-based or functional assay; remark: listed apart in the source

T2 sequence (P02786 whole entry): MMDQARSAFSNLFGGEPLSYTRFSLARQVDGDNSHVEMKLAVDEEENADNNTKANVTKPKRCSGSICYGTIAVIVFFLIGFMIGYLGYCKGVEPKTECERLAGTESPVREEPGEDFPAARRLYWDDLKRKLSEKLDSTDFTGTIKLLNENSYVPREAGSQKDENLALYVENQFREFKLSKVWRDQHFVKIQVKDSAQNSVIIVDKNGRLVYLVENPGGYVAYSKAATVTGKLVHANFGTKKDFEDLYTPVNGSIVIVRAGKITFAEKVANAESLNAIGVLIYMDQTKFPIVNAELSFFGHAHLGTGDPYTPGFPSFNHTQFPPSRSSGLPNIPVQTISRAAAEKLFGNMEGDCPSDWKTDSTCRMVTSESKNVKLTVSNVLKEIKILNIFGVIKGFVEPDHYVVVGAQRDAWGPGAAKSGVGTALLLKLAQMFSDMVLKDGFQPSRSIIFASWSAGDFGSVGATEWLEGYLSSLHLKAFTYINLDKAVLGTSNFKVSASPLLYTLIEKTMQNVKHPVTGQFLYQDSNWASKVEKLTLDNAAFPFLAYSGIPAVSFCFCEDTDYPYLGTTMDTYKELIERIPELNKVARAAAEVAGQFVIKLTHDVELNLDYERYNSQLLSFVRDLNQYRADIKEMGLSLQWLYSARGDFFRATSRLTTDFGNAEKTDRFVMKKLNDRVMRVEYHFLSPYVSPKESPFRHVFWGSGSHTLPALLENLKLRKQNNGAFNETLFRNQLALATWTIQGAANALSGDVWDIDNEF
T1 sequence (P02786 other isoform, or with tags, fused parts or gaps): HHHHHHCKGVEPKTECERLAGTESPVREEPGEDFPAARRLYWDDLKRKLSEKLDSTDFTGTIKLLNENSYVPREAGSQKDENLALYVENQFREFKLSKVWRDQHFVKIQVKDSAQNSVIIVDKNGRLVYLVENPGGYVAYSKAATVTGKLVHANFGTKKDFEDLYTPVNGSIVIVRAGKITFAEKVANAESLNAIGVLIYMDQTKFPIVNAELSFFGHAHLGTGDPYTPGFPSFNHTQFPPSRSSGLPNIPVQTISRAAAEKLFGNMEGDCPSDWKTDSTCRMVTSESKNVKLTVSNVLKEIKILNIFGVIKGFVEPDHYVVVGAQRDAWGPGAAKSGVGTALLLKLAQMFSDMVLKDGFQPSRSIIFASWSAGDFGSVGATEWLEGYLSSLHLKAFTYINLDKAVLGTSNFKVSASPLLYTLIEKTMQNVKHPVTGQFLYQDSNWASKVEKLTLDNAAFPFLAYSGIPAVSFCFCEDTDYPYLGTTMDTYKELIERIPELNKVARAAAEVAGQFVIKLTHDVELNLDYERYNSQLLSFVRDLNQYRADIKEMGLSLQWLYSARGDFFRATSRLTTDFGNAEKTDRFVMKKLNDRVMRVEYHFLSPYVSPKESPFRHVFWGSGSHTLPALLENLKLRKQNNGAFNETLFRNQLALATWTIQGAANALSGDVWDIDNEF

Binder	hCD71 [1]	hCD71:HSA [2]	IC50, SKBR-3 viability, MMAF conjugate, second unlabelled column (+/- human transferrin) (CD71 on SK-BR-3 cells [3])	IC50, SK-BR3 viability, MMAF conjugate, no competitor (CD71 on SK-BR-3 cells [4])	IC50, SK-BR3 viability, MMAF conjugate, with 0.6 uM holo-human transferrin (CD71 on SK-BR-3 cells [4])	hCD71 [5]	huCD71/Fc [6]	IC50, SKBR-3 cell viability, MMAF conjugate (CD71 on SK-BR-3 cells [7])	IC50, SKBR-3 viability, MMAF conjugate, first unlabelled column (+/- human transferrin) (CD71 on SK-BR-3 cells [3])
SEQ ID NO 238 (designed binder, FN3 domain) MLPAPKNLVVSRVTEDSARLSWTAPDAAFDSFKIFYQEFGGEAIVLTVPGSERSYDLTGLKPGTEYWVDIYGVKGGYTSSPLSAIFTT	2.88e+06	679	7.23 nM	–	–	–	–	–	–
SEQ ID NO 62 (designed binder, VC-MMAF conjugate (site not given)) MLPAPKNLVVSRVTEDSARLSWTAPDAAFDSFPILYLELNHHGEEIVLTVPGSERSYDLTGLKPGTEYWVYIFGVKGGMYSAPLSAIFTTGG	–	–	–	> 0.005 nM	0.6 nM	–	–	–	–
SEQ ID NO 36 (designed binder, FN3 domain) MLPAPKNLVVSRVTEDSARLSWTAPDAAFDSFTITYIEWWENGEAIALSVPGSERSYDLTGLKPGTEYQVGIAGVKGGYKSYPLWALFTT	–	–	–	–	–	3.3e+06	535	7.1 nM	–
SEQ ID NO 190 (designed binder, FN3 domain) MLPAPKNLVVSRVTEDSARLSWTAPDAAFDSFFIGYPEYPATGEAITLFVPGSERSYDLTGLKPGTEYNVVIQGVKGGRPSNPLVVAFTT	3.21e+06	656	12 nM	–	–	–	–	–	36 nM
SEQ ID NO 252 (designed binder, FN3 domain) MLPAPKNLVVSRVTEDSARLSWTAPDAAFDSFDIGYTEYGGYGEAIVLTVPGSERSYDLTGLKPGTEYWVLIQGVKGGGSSVPLSAIFTT	2.98e+06	1190	7.74 nM	–	–	–	–	–	24.6 nM
SEQ ID NO 302 (designed binder, FN3 domain) MLPAPKNLVVSRVTEDSARLSWTAPDAAFDSFDIYYPEYYDRGEAIVLTVPGSERSYDLTGLKPGTEYTVYIDGVKGGGGSGPLSAIFTT	2.67e+06	126	27.8 nM	–	–	–	–	–	164 nM
SEQ ID NO 235 (designed binder, FN3 domain) MLPAPKNLVVSRVTEDSARLSWTAPDAAFDSFSINYREWWSDGEAIYLPVPGSERSYDLTGLKPGTEYAVYIQGVKGGSRSFPLHAWFTT	3.92e+06	2910	10.6 nM	–	–	–	–	–	1.75 nM
SEQ ID NO 44 (designed binder, FN3 domain) MLPAPKNLVVSRVTEDSARLSWTAPDAAFDSFYIEYYESLPDGEAIVLTVPGSERSYDLTGLKPGTEYAVYIYGVKGGYYSRPLSAIFTT	–	–	–	–	–	176000	44.8	2.5 nM	–
SEQ ID NO 104 (designed binder, FN3 domain) MLPAPKNLVVSHVTEDSARLSWTAPDAAFDSFDIEYYELVGSGEAIVLTVPGSERSYDLTGLKPGTEYYVAIYGVKGGYLSRPLSAIFTT	3.58e+06	2100	5.9 nM	–	–	–	–	–	301 nM
SEQ ID NO 134 (designed binder, FN3 domain) MLPAPKNLVVSRVTEDSARLSWTAPDAAFDSFWIDYYERKYVGEAIVLTVPGSERSYDLTGLKPGTEYEVTIYGVKGGWYSDPLSAIFTT	3.08e+06	1580	8.54 nM	–	–	–	–	–	165 nM
SEQ ID NO 52 (designed binder, FN3 domain) MLPAPKNLVVSRVTEDSARLSWTAPDAAFDSFKISYQEWWEDGEAIVLTVPGSERSYDLTGLKPGTEYWVNISGVKGGVQSYPLSAIFTT	–	–	–	–	–	1.01e+07	5750	6.3 nM	–
SEQ ID NO 49 (designed binder, FN3 domain) MLPAPKNLVVSRVTEDSARLSWTAPDAAFDSFGISYLEWWEDGEAIVLTVPGSERSYDLTGLKPGTEYWVSIAGVKGGKRSYPLSAIFTT	–	–	–	–	–	1.09e+07	948	3 nM	–
SEQ ID NO 58 (designed binder, FN3 domain) MLPAPKNLVVSRVTEDSARLSWTAPDAAFDSFTIWYAEADGWGEAIVLTVPGSERSYDLTGLKPGTEYFVDIYGVKGGYLSVPLSAIFTT	–	–	–	–	–	302000	62.9	7.7 nM	–
SEQ ID NO 51 (designed binder, FN3 domain) MLPAPKNLVVSRVTEDSARLSWTAPDAAFDSFFIKYIEWWADGEAIVLTVPGSERSYDLTGLKPGTEYLVEIYGVKGGKWSWPLSAIFTT	–	–	–	–	–	9.71e+06	2290	4.9 nM	–
SEQ ID NO 59 (designed binder, FN3 domain) MLPAPKNLVVSRVTEDSARLSWTAPDAAFDSFTIWYAEWEDEGEAIVLTVPGSERSYDLTGLKPGTEYRVEIYGVKGGYPSKPLSAIFTT	–	–	–	–	–	1.95e+06	608	4 nM	–
SEQ ID NO 226 (designed binder, FN3 domain) MLPAPKNLVVSRVTEDSARLSWTAPDAAFDSFHIIYEEVLTEGEAIYLRVPGSERSYDLTGLKPGTEYGVTIKGVKGGAYSIPLIATFTT	4.33e+06	1520	8.32 nM	–	–	–	–	–	–
SEQ ID NO 92 (designed binder, FN3 domain) MLPAPKNLVVSRVTEDSARLSWTAPDAAFDSFLIRYWEWYVLGEAIVLTVPGSERSYDLTGLKPGTEYYVEISGVKGGWQSWPLSAIFTT	3.85e+06	2960	1.06 nM	–	–	–	–	–	5.49 nM
SEQ ID NO 194 (designed binder, FN3 domain) MLPAPKNLVVSRVTEDSARLSWTAPDAAFDSFEIDYDELAIYGEAIVLTVPGSERSYDLTGLKPGTEYRVFIYGVKGGWTSWPLSTIFTT	562000	32	5.09 nM	–	–	–	–	–	–
SEQ ID NO 259 (designed binder, FN3 domain) MLPAPKNLVVSRVTEDSARLSWTAPDAAFDSFTIEYFEFVDAGEAIVLTVPGSERSYDLTGLKPGTEYWVEIWGVKGGSWSKPLSAIFTT	2.44e+06	1160	–	–	–	–	–	–	27.5 nM
SEQ ID NO 61 (designed binder, FN3 domain) MLPAPKNLVVSRVTEDSARLSWRVESRTFDSFLIQYQESEKVGEAIVLTVPGSERSYDLTGLKPGTEYTVSIYGVVWDTRDNPISNPLSAIFTT	–	–	–	–	–	4.9e+06	461	1.93 nM	–
SEQ ID NO 50 (designed binder, FN3 domain) MLPAPKNLVVSRVTEDSARLSWTAPDAAFDSFVIEYREGAWYGEAIVLTVPGSERSYDLTGLKPGTEYFVDITGVKGGWWSDPLSAIFTT	–	–	–	–	–	1.08e+07	4490	3.1 nM	–

Source: patent US20210145976A1 (ARO BIOTHERAPEUTICS, published 2021)
